Holding throughout (assay): cell-based or functional assay
Experiment [1] has as its target endothelin receptor B (ETB) (UniProt P48302).
The target in experiment [2] is calcium/calmodulin-dependent protein phosphatase calcineurin.
Experiment [3] addresses endothelin receptor A (ETA) (UniProt Q61614).

Chain of endothelin receptor B (ETB) (P48302 27-442 limits assumed): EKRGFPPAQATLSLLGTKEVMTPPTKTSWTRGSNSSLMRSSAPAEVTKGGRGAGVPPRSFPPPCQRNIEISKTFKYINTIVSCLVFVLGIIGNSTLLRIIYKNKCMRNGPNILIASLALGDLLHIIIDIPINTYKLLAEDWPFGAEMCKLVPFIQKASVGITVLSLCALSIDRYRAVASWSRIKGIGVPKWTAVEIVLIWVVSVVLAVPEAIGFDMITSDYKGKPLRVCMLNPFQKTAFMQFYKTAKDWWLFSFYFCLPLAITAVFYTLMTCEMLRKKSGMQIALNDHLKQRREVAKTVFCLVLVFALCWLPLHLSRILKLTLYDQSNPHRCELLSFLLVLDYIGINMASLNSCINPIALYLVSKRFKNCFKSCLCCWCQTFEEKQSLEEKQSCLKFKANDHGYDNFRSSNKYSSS
Chain of endothelin receptor A (ETA) (Q61614 21-427 limits assumed): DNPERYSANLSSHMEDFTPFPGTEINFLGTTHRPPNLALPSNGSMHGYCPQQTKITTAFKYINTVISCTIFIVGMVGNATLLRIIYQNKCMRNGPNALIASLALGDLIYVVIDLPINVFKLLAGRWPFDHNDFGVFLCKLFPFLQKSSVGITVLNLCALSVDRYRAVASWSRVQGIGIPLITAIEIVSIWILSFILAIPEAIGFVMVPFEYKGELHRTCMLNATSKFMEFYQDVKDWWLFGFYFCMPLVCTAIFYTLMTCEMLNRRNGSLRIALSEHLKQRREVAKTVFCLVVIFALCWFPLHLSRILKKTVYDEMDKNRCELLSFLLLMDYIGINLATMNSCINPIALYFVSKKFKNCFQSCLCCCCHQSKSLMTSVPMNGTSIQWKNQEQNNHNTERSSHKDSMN

In experiment [1], BQ-788 (peptide) gave an ANF expression (RT-PCR) after ET-1 stimulation, relative to ET-1 without compound (100%); BQ788 1 µM of 70% and a BNP expression (RT-PCR) after ET-1 stimulation, relative to ET-1 without compound (100%); BQ788 1 µM of 70%.
As to Cyclosporin A (peptide), in experiment [2], the ANF expression (RT-PCR) after ET-1 stimulation, relative to ET-1 without compound (100%); cyclosporin A 1 µg/ml is 70%; the ANF expression (RT-PCR) after PE stimulation, relative to PE without compound (100%); cyclosporin A 1 µg/ml worked out at 70%; the BNP expression (RT-PCR) after ET-1 stimulation, relative to ET-1 without compound (100%); cyclosporin A 1 µg/ml turned out to be 50%; the BNP expression (RT-PCR) after PE stimulation, relative to PE without compound (100%); cyclosporin A 1 µg/ml came out at 70%.
Consider BQ-123 (peptide), for which, in experiment [3], the ANF expression (RT-PCR) after ET-1 stimulation, relative to ET-1 without compound (100%); BQ123 1 µM came out at 50% and the BNP expression (RT-PCR) after ET-1 stimulation, relative to ET-1 without compound (100%); BQ123 1 µM came out at 60%.
